Experimental findings from patent US20240189392A1 (AMBRX, published 2024) are described below.

Experiment in all cases: cell-based or functional assay
The target of one assay is T1, rat RXFP1 (rat, UniProt Q6R6I6 1-758).
T1 sequence (looked up): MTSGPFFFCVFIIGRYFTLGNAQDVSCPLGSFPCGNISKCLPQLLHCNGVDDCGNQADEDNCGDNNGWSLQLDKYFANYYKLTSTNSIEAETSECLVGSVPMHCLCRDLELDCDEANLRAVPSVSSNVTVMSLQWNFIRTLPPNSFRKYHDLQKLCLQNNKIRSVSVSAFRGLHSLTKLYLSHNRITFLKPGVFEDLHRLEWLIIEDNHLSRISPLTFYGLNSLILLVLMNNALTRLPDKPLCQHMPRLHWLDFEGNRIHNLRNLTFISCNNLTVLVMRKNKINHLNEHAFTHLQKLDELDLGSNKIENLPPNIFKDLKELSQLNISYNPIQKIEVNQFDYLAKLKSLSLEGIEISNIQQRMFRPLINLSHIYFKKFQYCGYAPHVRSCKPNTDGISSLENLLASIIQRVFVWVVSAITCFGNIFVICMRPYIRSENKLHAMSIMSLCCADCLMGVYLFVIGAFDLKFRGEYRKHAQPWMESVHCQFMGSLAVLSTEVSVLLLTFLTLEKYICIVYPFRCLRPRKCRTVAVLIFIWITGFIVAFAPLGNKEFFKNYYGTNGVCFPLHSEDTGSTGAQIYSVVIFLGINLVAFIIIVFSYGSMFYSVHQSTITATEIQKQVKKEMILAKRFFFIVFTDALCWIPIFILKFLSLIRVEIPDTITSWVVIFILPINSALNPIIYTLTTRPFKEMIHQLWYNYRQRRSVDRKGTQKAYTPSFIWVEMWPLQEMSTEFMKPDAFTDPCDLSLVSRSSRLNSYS

For the next assay, the target named is T2, mouse RXFP1 (mouse, UniProt Q6R6I7 1-758).
T2 sequence (looked up): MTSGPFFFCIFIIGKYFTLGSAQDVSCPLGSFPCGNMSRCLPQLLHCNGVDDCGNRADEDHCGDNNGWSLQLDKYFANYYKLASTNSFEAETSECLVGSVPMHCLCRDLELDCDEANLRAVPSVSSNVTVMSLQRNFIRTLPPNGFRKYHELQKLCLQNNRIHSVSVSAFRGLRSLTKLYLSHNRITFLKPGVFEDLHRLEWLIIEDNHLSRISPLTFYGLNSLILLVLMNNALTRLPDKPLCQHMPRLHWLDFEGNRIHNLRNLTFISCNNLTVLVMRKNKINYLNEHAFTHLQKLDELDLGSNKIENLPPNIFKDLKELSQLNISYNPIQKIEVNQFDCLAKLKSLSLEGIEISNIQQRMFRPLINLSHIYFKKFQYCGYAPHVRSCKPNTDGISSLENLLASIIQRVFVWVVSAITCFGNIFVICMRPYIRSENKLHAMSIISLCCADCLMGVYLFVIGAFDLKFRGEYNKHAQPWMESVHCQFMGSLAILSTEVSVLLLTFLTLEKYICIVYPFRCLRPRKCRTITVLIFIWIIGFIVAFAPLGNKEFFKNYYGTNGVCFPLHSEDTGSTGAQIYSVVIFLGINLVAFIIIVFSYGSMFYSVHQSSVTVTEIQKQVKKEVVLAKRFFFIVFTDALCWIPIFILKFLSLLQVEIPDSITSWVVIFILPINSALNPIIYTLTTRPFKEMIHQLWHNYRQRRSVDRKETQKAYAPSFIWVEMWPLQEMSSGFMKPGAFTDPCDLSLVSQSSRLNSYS

The target of another assay is human RXFP4 (human, UniProt Q8TDU9 1-374).
Sequence of human RXFP4 (Q8TDU9 whole entry): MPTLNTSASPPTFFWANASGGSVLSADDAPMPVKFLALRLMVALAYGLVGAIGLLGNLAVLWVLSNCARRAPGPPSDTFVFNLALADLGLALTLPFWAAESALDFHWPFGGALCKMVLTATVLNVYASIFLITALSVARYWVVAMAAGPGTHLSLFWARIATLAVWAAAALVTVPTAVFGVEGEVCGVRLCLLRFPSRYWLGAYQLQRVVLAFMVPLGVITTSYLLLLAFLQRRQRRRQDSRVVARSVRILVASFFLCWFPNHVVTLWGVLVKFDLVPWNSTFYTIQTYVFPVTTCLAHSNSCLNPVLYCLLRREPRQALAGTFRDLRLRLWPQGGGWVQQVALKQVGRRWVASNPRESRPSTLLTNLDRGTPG

B1: RLX-A-AQ1-20KPEG (ligand)
chain 1: XLYSALANKCCHVGCTKRSLARFC
chain 2: ASWMEEVIKLCGRELVRAQIAICGMSTWS
modifications: pACF (para-acetylphenylalanine) at position 1 of the A chain, linked to a 20 kDA PEG via an oxime linkage
On to B1, for which, in the assay with rat RXFP1, the “Potency Ratio (RLX-A-AQ1-20KPEG/WT-RLX), cAMP assay, rat RXFP1/CHO-K1 cells” value is 32 fold; the “RLX-A-AQ1-20KPEG Potency Ratio (hRXFP 1-1.0), cAMP assay” value was 0.34 ratio; the “cAMP Assay EC50 (nM), rat RXFP1/CHO-K1 cells” value came out at 1.1 nM. For the same molecule, in the assay with mouse RXFP1, the “Potency Ratio (RLX-A-AQ1-20KPEG/WT-RLX), cAMP assay, mouse RXFP1/CHO-K1 cells” value came out at 22 fold; the “RLX-A-AQ1-20KPEG Potency Ratio (hRXFP 1-1.0), cAMP assay” value amounted to 0.66 ratio; the “cAMP Assay EC50 (nM), mouse RXFP1/CHO-K1 cells” value came to 2.1 nM. In the assay with human RXFP4, the “cAMP Assay EC50 (nM), inhibition of forskolin-induced cAMP, human RXFP4/CHO-K1 cells” value was greater than 3000 nM.
